Measurements: US20250101096A1 (SERA PROGNOSTICS, published 2025)

Experiments:
[1] = target: T1, human insulin-like growth factor binding protein 4 (IBP4) (human, UniProt P22692 22-258); assay: AC-MS, 10 ul QC2 serum, M-PVA beads coupled at 100 ug/ml mAb
T1 construct: also called IBP4 protein; IGFBP4
T1 sequence: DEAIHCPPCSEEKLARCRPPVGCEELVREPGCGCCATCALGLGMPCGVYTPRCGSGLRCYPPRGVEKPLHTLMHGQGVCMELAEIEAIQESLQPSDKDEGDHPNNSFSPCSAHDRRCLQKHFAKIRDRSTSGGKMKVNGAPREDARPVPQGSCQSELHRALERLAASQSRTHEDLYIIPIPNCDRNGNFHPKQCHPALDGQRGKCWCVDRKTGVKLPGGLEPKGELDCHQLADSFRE
Description: (§1) AC-MS performance at reduced IBP4 antibody coupling density. IBP4 antibodies were coupled to M-PVA beads at concentrations of […] in the coupling reaction to test the performance of M-PVA beads with reduced density of coupled antibody. Comparison of the IBP4 response ratios obtained in AC-MS experiments with M-PVA beads with a low density of coupled mAb should reveal differences in the apparent affinity of the antibodies to IBP4 protein.
(§2) M-PVA beads coupled to IBP4 mAbs 1H9.B6, 5C11.A7, 7G11.H4 or 5B3.G9 at each concentration were used in AC-MS experiments with 10 μl of QC2 serum.

[2] = target: T1, human insulin-like growth factor …; assay: SPR, format and IBP4 form not stated
[3] = target: T1, human insulin-like growth factor …; assay: AC-MS, 10 ul QC2 serum, M-PVA beads coupled at 400 ug/ml mAb
Description: as §1, §2

[4] = target: T1, human insulin-like growth factor …; assay: AC-MS, mAb on M-PVA beads, pooled pregnant serum, peptide …
Description: (§3) Anti-IBP4 antibody evaluation and selection. A total of 8 hybridoma clones (1H9.B6, 5C11.A7, 7G11.H4, 3D4.E9, 1G3.A3, 8G4.G11, 5F10.B2, and 3D8.A11) were produced according to the “additional production of anti-IBP4 antibodies” methods disclosed in Example 1 and screened by AC-MS, shown in Table 10 below. Monoclonal antibodies from these clones purified by protein-G affinity chromatography were covalently coupled to M-PVA magnetic beads and used in AC-MS experiments using pooled pregnant serum. The 5B3.G9 anti-IBP4 antibody clone was included in this analysis for comparison to the performance of the additional IBP4 antibodies, as shown and italicized in Table 10 below. Table 10 includes a summary of the additional antibodies Response Ratios and shared epitope binding results as determined by the competitive binding assays of Example 3.

[5] = target: T1, human insulin-like growth factor …; assay: AC-MS, mAb on M-PVA beads, pooled pregnant serum
Description: as §3

[6] = target: T1, human insulin-like growth factor …; assay: AC-MS, mAb on M-PVA beads, QC2 serum, round 2 (beads reused)
[7] = target: T1, human insulin-like growth factor …; assay: AC-MS, 10 ul QC2 serum, M-PVA beads at reduced mAb coupling density
Description: as §1, §2

[8] = target: T1, human insulin-like growth factor …; assay: AC-MS, mAb on M-PVA beads, QC2 serum, round 1
[9] = target: T1, human insulin-like growth factor …; assay: AC-MS, 10 ul QC2 serum, M-PVA beads coupled at 25 ug/ml mAb
Description: as §1, §2

[10] = target: T1, human insulin-like growth factor …; assay: AC-MS, mAb on M-PVA beads, QC2 serum, round 3 (beads reused)
[11] = target: T2, anti-SHBG antibody clone variant 4G10.F8; assay: ECLIA, single peptide competes with SHBG for the antibody
T2 construct: Mouse monoclonal; variant form expressed from a standard backbone in CHO cells; also called SHBG (4G10.F8) Anti SHBG v1; SHBG #6

C4 Pos Control #4 = assay: as above
[12] = target: T3, anti-SHBG antibody clone variant 13C9.E5; assay: as above
T3 construct: Mouse monoclonal; variant form; also called SHBG (13C9.E5) Anti SHBG v2; SHBG #16
T3 sequence (VH, as listed by the source): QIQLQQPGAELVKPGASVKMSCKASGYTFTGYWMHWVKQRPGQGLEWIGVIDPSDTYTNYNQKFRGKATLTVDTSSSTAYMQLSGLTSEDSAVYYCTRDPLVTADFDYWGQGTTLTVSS

T2 sequence (heavy, as listed by the source, chain 1 of 2): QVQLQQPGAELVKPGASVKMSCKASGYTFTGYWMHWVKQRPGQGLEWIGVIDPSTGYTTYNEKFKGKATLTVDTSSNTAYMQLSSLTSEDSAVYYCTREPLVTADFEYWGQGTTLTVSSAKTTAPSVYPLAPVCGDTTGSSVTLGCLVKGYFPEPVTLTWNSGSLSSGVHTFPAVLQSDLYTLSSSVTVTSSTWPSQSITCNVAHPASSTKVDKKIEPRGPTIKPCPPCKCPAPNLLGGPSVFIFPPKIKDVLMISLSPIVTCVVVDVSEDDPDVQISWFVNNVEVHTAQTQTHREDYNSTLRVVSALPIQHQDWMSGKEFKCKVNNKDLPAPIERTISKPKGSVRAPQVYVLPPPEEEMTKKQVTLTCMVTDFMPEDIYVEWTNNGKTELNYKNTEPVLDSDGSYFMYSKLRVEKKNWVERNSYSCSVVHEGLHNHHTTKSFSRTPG
T2 sequence (light, as listed by the source, chain 2 of 2): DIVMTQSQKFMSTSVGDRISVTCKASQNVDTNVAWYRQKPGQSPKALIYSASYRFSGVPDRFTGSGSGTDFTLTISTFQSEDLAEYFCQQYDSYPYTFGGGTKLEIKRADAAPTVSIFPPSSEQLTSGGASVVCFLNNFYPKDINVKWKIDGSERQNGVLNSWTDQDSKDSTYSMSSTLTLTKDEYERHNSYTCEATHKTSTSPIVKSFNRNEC

Binder	ave RR [1]	Kd [2]	koff [2]	kon [2]	t1/2 [2]	ave RR [3]	Response Ratio [4]	ave IBP4 AC-MS RR [5]	ave RR [6]	percentage of the IBP4 RR at 25 relative to 400 coupling density [7]	ave RR [8]	ave RR [9]	ave RR [10]	further results
anti-IBP4 antibody 1H9.B6 (antibody, mouse IgG1, kappa, V domains shown, Mouse hybridoma mAb raised against FL IBP4; also called IBP4-1H9.B6) VH: EVQLQQSGPELVKPGASVKISCKTSGYTFTDYYMNWVKQSHGKSLEWIGDINPNNGGAGYNQKFKGKATLTVDKSSSTAYMELRSLTSEDSAVYYCARWGWDRYFDYWGQGTTLTVSS VL: DIVMTQSQKFMSTSVGDRVSVTCKASQNVGIDVAWYQQKPGQSPKALIYSASYRSSGVPDRFTGSGSGTDFTLTINNVQSEDLAEYFCQQYNSYPLAFGSGTKLEIKR	0.562	1.5 nM	0.0009 s⁻¹	600000 M⁻¹ s⁻¹	12.8 min	0.586	0.588	0.588	0.607	82%	0.602	0.479	0.62	
anti-IBP4 antibody 5C11.A7 (antibody, mouse IgG1, kappa, V domains shown, Mouse hybridoma mAb raised against FL IBP4; also called IBP4-5C11.A7) VH: QVQLQQSGAELVRPGASVTLSCKASGYTFTDYEMHWVRQTPVHGLEWIGAIDTETGGPAYNQKFKGKAILTADKSSSTAYMELRSLTSEDSAVYFCTRARGSRSVYYFDNWGQGTTLTVSS VL: DIVMTQSQKFMSTSVGDRVSVTCKASQNVGTNVAWYQQKPGHSPKVLIYSASYRHSGVPDRFTGSGSGTDFTLTIGNVQSEDLADYFCQQYDTYPLTFGSGTKLEIKR	0.567	1.6 nM	0.00074 s⁻¹	450000 M⁻¹ s⁻¹	15.6 min	0.595	0.548	0.548	0.609	79%	0.651	0.47	0.619	
anti-IBP4 antibody 7G11.H4 (antibody, mouse IgG1, kappa, V domains shown, Mouse hybridoma mAb raised against FL IBP4; also called IBP4-7G11.H4) VH: QVQLQQSGAELVRPGASVTLSCKASGYTFTDYEMHWVRQTPVHGLEWIGAIDTETGGPAYNQKFKGKAILTADKSSSTAYMELRSLTSEDSAVYFCTRARGSRSVYYFDNWGQGTTLTVSS VL: DIVMTQSQKFMSTSVGDRVSVTCKASQNVDTNIAWYQQKPGHSPKALIYSASYRYSGVPDRFTGSGSGTDFTLTIGNVQSEDLADYFCQQYDTYPLTFGSGTKLEIKR	0.492	2.8 nM	0.00102 s⁻¹	370000 M⁻¹ s⁻¹	11.3 min	0.538	0.525	0.525	0.56	75%	0.598	0.404	0.547	
LRPVLPTQSAHDPP (SHBG peptide of pool 1+2+3; also called peptide 1; Individual Peptide 1) [1]														% Unblocked Signal at 0.07 uMolar [11]: 95.8%; % Unblocked Signal at 0.27 uMolar [11]: 83%; % Unblocked Signal at 1.08 uMolar [11]: 53.2%; % Unblocked Signal at 0.07 uMolar (C4 Pos Control #4): 93.3%; % Unblocked Signal at 0.27 uMolar (C4 Pos Control #4): 77.1%; % Unblocked Signal at 1.08 uMolar (C4 Pos Control #4): 66.3%; % Unblocked Signal at 0.07 uMolar [12]: 93.4%; % Unblocked Signal at 0.27 uMolar [12]: 89.6%; % Unblocked Signal at 1.08 uMolar [12]: 86.8%
anti-IBP4 antibody 5B3.G9 (antibody, mouse IgG1, kappa) heavy: EVQLQQSGPELVKPGASAKISCKASGYTFTDYYMNWVKQSHGKSLEWIGDINPNNGGSAYNQKFKGKATLTVDKSSSTAYMELRSLTSEDSAVYYCARWDGGFDYWGQGTTLTVSSAKTTPPSVYPLAPGSAAQTNSMVTLGCLVKGYFPEPVTVTWNSGSLSSGVHTFPAVLQSDLYTLSSSVTVPSSTWPSQTVTCNVAHPASSTKVDKKIVPRDCGCKPCICTVPEVSSVFIFPPKPKDVLTITLTPKVTCVVVDISKDDPEVQFSWFVDDVEVHTAQTKPREEQINSTFRSVSELPIMHQDWLNGKEFKCRVNSAAFPAPIEKTISKTKGRPKAPQVYTIPPPKEQMAKDKVSLTCMITNFFPEDITVEWQWNGQPAENYKNTQPIMDTDGSYFVYSKLNVQKSNWEAGNTFTCSVLHEGLHNHHTEKSLSHSPGK light: DIVMTQSQKFMSTSVRDRVSVTCKASQNVGTNVAWYQQKPGQSPKALIYSASYRYSGVPDRFTGSGSGTAFTLTISNVQSEDLAEYFCQQYNIYPLTFGAGTKLELKRADAAPTVSIFPPSSEQLTSGGASVVCFLNNFYPRDINVKWKIDGSERQNGVLNSWTDQDSKDSTYSMSSTLTLTKDEYERHNSYTCEATHKTSTSPIVKSFNRNECK	0.449	10 nM	0.0021 s⁻¹	200000 M⁻¹ s⁻¹	5.5 min	0.47	0.482	0.482	0.534	49%	0.533	0.231	0.462	
